Source: patent US20140017790A1, “CONTROL AGENT FOR CONTROLLING UNDIFFERENTIATED STATE AND USE THEREOF” (RIKEN, priority 2011, published 2014)

Key:
Format in all cases: cell-based
ERK1/2 = test: Western blotting, phosphorylation of ERK1/2 in mouse iPS cells; conditions: CCL2 overexpressed, relative to negative control
Protocol: The mouse iPS cells transfected with the Ccl2 expression vector were cultured for 24 hours in the same manner as in Example 1. After the culture, the mouse iPS cells were washed with PBS, and then were suspended in 100 μl of a mammalian m-PER lysis buffer. The suspension was passed through a 26-gauge needle for 10 minutes to homogenize the cells. Then, the suspension was centrifuged at 13,000 rpm and 4° C. for 5 minutes, and the supernatant was collected. The protein concentration in the supernatant was measured using a Pierce (registered trademark) BCA Protein assay (trade name, Thermo Scientific). Next, the supernatant was subjected to Western blotting to detect a target protein. Specifically, first, the supernatant (total protein: 10 μg) was applied to a Novex Gel electrophoresis system with 4%-12% Bis-Tris gels, and was blotted on a nitrocellulose membrane. Then, the membrane was incubated with a primary antibody against the target protein. After washing the membrane, the membrane was incubated with a labeled secondary antibody labeled with horseradish peroxidase, and a color-developing reaction was caused using a coloring reagent (trade name: ECL plus, GE Healthcare). Then, luminescence on the membrane was detected using a Fuji LAS-3000 luminescent image analyzer. […]

human iPS cells [1] = test: differentiation of EBs to myocardial cells, morphology and Tropomyosin immunostaining; conditions: 10th day from the plating; CCL2(+)/LIF(+) or CCL2(-)/bFGF(+) 5 ng/ml
From the text: It has been reported that, in general, according to the spontaneous differentiation-inducing method used in the above item (1), differentiation into myocardial cells is more liable to occur. Thus, regarding the cells on the 10th day from the plating in the above item (1), differentiation into myocardial cells was examined.
The morphology of the cells was examined with a microscope. Furthermore, they were immunostained with a Tropomyosin, which is a marker for myocardial cells. Also, culture of the cells, observation of the morphology, and staining were carried out in the same manner as in the above using a medium to which bFGF (5 ng/ml) has been added instead of the CCL2 and LIF.
The photographs in FIG. 19 show the morphologies of the cells on the 10th day from the plating of EB. […] Furthermore, in FIGS. 19A and 19B, the photographs on the left show the cell morphologies, and the photographs on the right show the stained cells. In the black and white photographs of FIG. 19, the stained portions are seen as light gray.

human iPS cells [2] = test: culture of human iPS cells in feeder free media, EB plating, cell adhesion
From the text: As undifferentiated cells, the same human iPS cells as used in Example 7 were used. As CCL2, the mouse recombinant CCL2 used in the item (1) of Example 2 was used. As feeder free media, the following three kinds of media were provided by adding or not adding the CCL2, LIF and bFGF to the medium for human stem cells used in Example 8. Specifically, the media used were as follows: the medium with CCL2 not added (−)/LIF not added (−)/bFGF added (+); the medium with CCL2 added (+)/LIF not added (−)/bFGF not added (−); and the medium with CCL2 added (+)/LIF added (+)/bFGF not added (−). In each medium, the concentration of the LIF was set to 50 units/ml, the concentration of the CCL2 was set to 500 ng/ml, and the concentration of the bFGF was set to 5 ng/ml. Then, the human iPS cells were cultured for 6 days using each medium, and EBs were produced. Thereafter, the thus-produced EBs were seeded in gelatin coated dishes so that each gelatin coated dish contained one EB, and cultured for 5 days in a medium (DMEM) containing 20% FBS.
The photographs in FIG. 20 show the cell morphologies of the EBs on the 5th day from the plating.

human iPS cells [3] = test: qRT-PCR of undifferentiated marker genes, feeder free versus feeder culture of human iPS cells; conditions: feeder free with CCL2 and LIF, no bFGF, relative to feeder conditions with bFGF
Protocol: Specifically, human iPS cells were cultured under feeder conditions where bFGF was added and the CCL2 was not added, and under feeder free conditions where bFGF was not added and the CCL2 and LIF were added. Total RNAs then were extracted, and the expressions of undifferentiated marker genes were examined by the qRT-PCR. The culture under the feeder conditions was carried out in the same manner as in Example 8. The culture under the feeder free conditions was carried out in the same manner as in Example 12. Then, assuming that the expression level under the feeder condition was 1, the relative value with respect to this value was calculated as the fold change in expression level under the feeder free conditions.
FIG. 21 is a graph showing the fold changes in the expression of the undifferentiated marker genes in the human iPS cells. The vertical axis indicates the fold change (-fold), and the horizontal axis indicates the examined undifferentiated marker genes. The open bars show the results obtained under the feeder free conditions, and the solid bars show the results obtained under the feeder conditions.

B1: CCL2: mouse recombinant CCL2 (MCP-1, #479-JE-010, R&D Systems); in Examples 1, 3, 4(1), 5 mouse CCL2 (SEQ ID NO: 3) overexpressed from Ccl2 expression vector (protein, listed as Mus musculus)
chain: MQVPVMLLGLLFTVAGWSIHVLAQPDAVNAPLTCCYSFTSKMIPMSRLESYKRITSSRCPKEAVVFVTKLKREVCADPKKEWVQTYIKNLDRNQMRSEPTTLFKTASALRSSAPLNVKLTRKSEANASTTFSTTTSSTSVGVTSVTVN
- phosphorylation of ERK1/2 (pERK1/2/ERK1/2) (ERK1/2): not promoted
- cell morphology of EBs, differentiation into myocardial cells (human iPS cells [1]): most of them exhibited myocardial cell-like morphology
- staining with Tropomyosin (marker for myocardial cells) (human iPS cells [1]): entirely stained red
- cell adhesion (human iPS cells [2]; CCL2 500 ng/ml + LIF 50 units/ml, bFGF not added): observed
- colony growth (human iPS cells [2]; CCL2 500 ng/ml + LIF 50 units/ml, bFGF not added, culture for 5 days): observed
- cell adhesion (human iPS cells [2]; LIF not added, CCL2 500 ng/ml alone or bFGF 5 ng/ml alone): observed
- expressions of the undifferentiated marker genes, fold change (human iPS cells [3]): comparable
